Data as given in paper PMC11074299.

Target: T1, wild-type full-length FADD (FADD^FuL) (human), Q13158
T1 chain: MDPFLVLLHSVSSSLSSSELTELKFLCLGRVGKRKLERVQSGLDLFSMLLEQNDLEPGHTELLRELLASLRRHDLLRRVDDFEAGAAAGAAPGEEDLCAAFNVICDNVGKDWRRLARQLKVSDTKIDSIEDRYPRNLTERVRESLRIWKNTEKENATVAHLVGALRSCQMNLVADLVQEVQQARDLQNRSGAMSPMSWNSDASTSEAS
Assay: cryo-EM structure; FA^FuL-C8^FuL_FGLG_CADA-CF complex; Complex A without cross-linking (7.5 Å) and Complex B stabilised by GraFix, glutaraldehyde (3.7 Å); Casp-8 protease domain and FADD DD not visible
Settings: remark: other sources report otherwise

stoichiometry N: 3
B1: wild-type full-length FADD (FADD^FuL), Q13158 1-208 (natural protein)
chain: T1 chain
